This note sets out measurements from patent US20260069689A1 (Regeneron, published 2026).

One may read the IC50 as the concentration needed to halve the response being measured. A higher IC50 goes with lower potency. Usually koff stands for the first-order rate constant of dissociation. The low end stands for slow dissociation, the high end for fast dissociation. The t½ is how long it takes for the measured level to halve. Read a low t½ as fast loss.

Where a chain is given by its changes, count along the chain named. Several values for one entry are separate records, joined by “and”; a condition that tells them apart may be missing. Equal values may be shown once.

Experiment [1] addresses SARS-CoV-2 RBD.mmh (Spike amino acids Arg319-Phe541 with C-terminal myc-myc-6-Histidine tag) (SARS-CoV-2, UniProt P0DTC2 319-541).
Experiment [2] deals with T1, SARS-COV-2 RBD-MMH (SARS-COV-2 RBD extracellular domain with C-terminal myc-myc-hexahistidine tag) (SARS-CoV-2). The experiment is described as follows: SPR 37C, mAb captured, pH 7.4 vs pH 6.0.
Experiment [3] deals with T1, SARS-COV-2 RBD-MMH (SARS-COV-2 RBD …).

B1: mAb14313 (antibody, V domains shown)
VH: EVQLVESGGGLVQPGRSLRLSCVASGFTFDDSAMHWVRQPPGKGLEWVSGISWNSGIIGYAESVKGRFIISRDNAKNSLFLHMRGLRPEDTAVYYCARDRLELSYYYYGMDVWGQGTTVTVSS
VL: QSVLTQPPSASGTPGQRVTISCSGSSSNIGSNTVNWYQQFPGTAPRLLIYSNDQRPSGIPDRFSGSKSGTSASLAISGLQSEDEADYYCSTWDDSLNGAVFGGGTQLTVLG
The molecule B1 registered an IC50 in experiment [1] of 16400 pM. Moreover, the “t½ Ratio of pH 7.4 to pH 6.0” value in experiment [2] worked out at 1.6. In experiment [3], the koff is 0.00251 s⁻¹ and 0.0041 s⁻¹; the “t½ at pH 6.0” value amounted to 2.8 min; the “t½ at pH 7.4” value worked out at 4.6 min.

B2: mAb14292 (antibody, V domains shown)
VH: EVQLVESGGGLVQPGGSLRLSCVASGFAFSTYEMNWVRQAPGKGLEWVSYISSSGSTIYYADSVKGRLTISRDNVKNSLYLQMNSLRVEDTAIYYCARDAIRNNDILTDPATFDPWGQGTLVTVSS
VL: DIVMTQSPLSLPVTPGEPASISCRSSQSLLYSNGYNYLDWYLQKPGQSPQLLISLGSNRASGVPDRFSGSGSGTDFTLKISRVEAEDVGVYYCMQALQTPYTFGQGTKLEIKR
For the molecule B2, in experiment [1], the IC50 came to 254 pM. Besides, the “t½ Ratio of pH 7.4 to pH 6.0” value in experiment [2] stood at 1.3. Moreover, in experiment [3], the koff is 0.00141 s⁻¹ and 0.00178 s⁻¹; the “t½ at pH 6.0” value was 6.5 min; the “t½ at pH 7.4” value is 8.2 min.

B3: mAb15157 (antibody, V domains shown)
VH: EVQLVESGGALVQPGGSLRLSCAASGFPFTIYAMTWVRQAPGKGLEWVSVITGSGDSTYYADSVKGRFTISRDNSKNTLYLQMNSLRAEDTAVYYCVKTGEGFFYYYYGMDVWGQGTTVTVSS
VL: QSVLTQPPSVSAAPGQKVTISCSGSSSNIGNSYISWYQQLPGTAPKLLIYVNNKRPSGIPDRFSGSKSGTSATLGITGLQTGDEADYYCGTWDSSLSAGVFGSGTKVTVLG
On to B3, for which the IC50 in experiment [1] worked out at 357 pM. Further, in experiment [2], the “t½ Ratio of pH 7.4 to pH 6.0” value amounted to 1.9. Further, in experiment [3], the koff is 0.00766 s⁻¹, the “t½ at pH 6.0” value turned out to be 1.5 min and the “t½ at pH 7.4” value came out at 2.9 min.

B4: mAb15159 (antibody, V domains shown)
VH: EVQLVESGGGLVQPGGSLRLSCAASGITVSSNYMTWVRQAPGKGLEWVSLIYSGGSTFYADSVRGRFTISRDNSKNTLYLQMNSLRAEDTAVYYCARDLVVYGMDVWGQGTTVTVSS
VL: DIQLTQSPSSLSASVGDRVTITCRASQGISSYLAWYQQKPGKAPKLLIYAASTLQSGVPSRFSGSGSGTDFTLTISSLQPEDFATYYCQHLNSDPHTFGQGTKLEIKR
B4 displayed an IC50 in experiment [1] of 156 pM. The “t½ Ratio of pH 7.4 to pH 6.0” value in experiment [2] came out at 1.8. Besides, in experiment [3], the koff came to 0.000412 s⁻¹, the “t½ at pH 6.0” value is 28.1 min and the “t½ at pH 7.4” value came to 50 min.

B5: mAb15158 (antibody, V domains shown)
VH: EVQLVESGGGLVQPGGSLRLSCAASGFSFSSNWMSWVRQAPGKGLEWVGNINQDGSEKYYVDSVEGRFTISRDNAKKSLYLQMNSLRAEDTAVYYCARDLGVLWFGDFVDWGQGALVTVSS
VL: DIQMTQSPSSLSASVGDRVTITCRASQAISNSLAWYQQKPGKAPKLLLYAASTLESGVPSRFSGSGSGTDYTLTISSLQPEDFATYYCLQYYGSPRTFGQGTKVEIKR
On to B5, for which the IC50 in experiment [1] came out at 309 pM. In addition, the “t½ Ratio of pH 7.4 to pH 6.0” value in experiment [2] turned out to be 0.9. For the same molecule, in experiment [3], the koff was 0.00029 s⁻¹, the “t½ at pH 6.0” value worked out at 40.1 min and the “t½ at pH 7.4” value worked out at 37 min.

B6: mAb14315 (antibody, V domains shown)
VH: QVQLVQSGAEVKKPGSSVKVSCKASGDTFSTYAINWVRQAPGQGLEWMGRFIHIFGTANYAQKFQGRVTITADESTSTAYMELRSLRSEDTAVYYCARDGVDYGDYRPDYWGQGTLVTVSS
VL: EIVLTQSPGTLSLSPGERATLSCRASQSVSSNYLAWYQQKPGQAPRLLIYGASSRATGIPERFSGSGSGTDFTLTISRLEPEDFAVYYCQQYGSSLYTFGQGTKLEIKR
In the case of B6, the midpoint of inhibition in experiment [1], the IC50, lay at 17200 pM. For the same molecule, the “t½ Ratio of pH 7.4 to pH 6.0” value in experiment [2] is 1. In experiment [3], the off-rate (koff) was found to be 0.000946 s⁻¹, the “t½ at pH 6.0” value is 12.2 min and the “t½ at pH 7.4” value amounted to 11.8 min.

B7: mAb15156 (antibody, V domains shown)
VH: QLQLQESGPGLVKSSETLSLTCTVSASITGSTYYWGWIRQPPGKGLEWIGSIYYSGTTYYKASLKSRVTISVDTSKNQFSLKLTSVTVADTAVYYCVSHLLGNYHKYGMDVWGQGTTVTVSS
VL: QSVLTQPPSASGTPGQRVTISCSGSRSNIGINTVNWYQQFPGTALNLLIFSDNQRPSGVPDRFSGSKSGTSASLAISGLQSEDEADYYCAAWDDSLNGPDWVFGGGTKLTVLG
Take B7: half-maximal inhibition in experiment [1] (IC50) was put at 269 pM. The “t½ Ratio of pH 7.4 to pH 6.0” value in experiment [2] is 1.4. Moreover, in experiment [3], the koff amounted to 0.0097 s⁻¹, the “t½ at pH 6.0” value came to 1.2 min and the “t½ at pH 7.4” value turned out to be 1.7 min.

B8: mAb14294 (antibody, V domains shown)
VH: EVQLVESGGGLVQPGGSLRLSCAASGFTFSNHWMDWVRQAPGKGLVWVSRINSDGSSTDYADSVRGRFTMSRDNAKNTLYLQMSSLRAEDTAVYYCAREGMIFGAVIIPGWYFDLWGRGALVTVSS
VL: EIVLTQSPGTLSLSPGERATLSCRASQSVSSSQLAWYQQKPGQAPRLLIYGASSRATGIPDRFSGSGSGTDFTLTISRLEPEDFAVYYCQQYDSFGQGTKLEIKR
In experiment [1], B8 displayed an IC50 of 244 pM. Further, in experiment [2], the “t½ Ratio of pH 7.4 to pH 6.0” value was 0.6. Besides, in experiment [3], the koff amounted to 0.000565 s⁻¹, the “t½ at pH 6.0” value was determined as 20.5 min and the “t½ at pH 7.4” value turned out to be 12.6 min.

B9: mAb14283 (antibody, V domains shown)
VH: QVQLQESGPGLVKPSGTLSLTCDVSGGSISSNNWWSWVRQRPGKGLQWIGEIYHNENTNYNPSLKSRVIMSIDKSKNQFSLKLTSVTAADTAVYYCARGDVLDWFDPWGQGTLVTVSS
VL: QSALTQPASVSGSPGQSTTISCTGTSSDVGGYNYVSWYQQYPGKAPKLMIYDVTNRPSGVSHRFSGSKSGNTASLTISGLQAEDEADYYCSSYTSSSTVIFGGGTKLTVLG
In experiment [1], B9 came in with an IC50 of 373 pM. Further, the “t½ Ratio of pH 7.4 to pH 6.0” value in experiment [2] was 1.2. For the same molecule, in experiment [3], the koff was 0.002 s⁻¹, the “t½ at pH 6.0” value is 5.8 min and the “t½ at pH 7.4” value was found to be 6.9 min.

B10: mAb14286 (antibody, V domains shown)
VH: QVQLVQSGAEVKKPGASVKVSCKASGYTFTDYFIHWVRQAPGQGLEWMGWINPTSGGTNYAQKFRGRVTMTRDTSISTAYVELSRLRSDDTALYYCARDLPFYSDTKQFDYWGQGTLVTVSS
VL: B9 VL with S13Y, T18I, Y41H, Y51F, T54S, H62N, I77F, V99L, I100V
Turning to B10, it took 641 pM to reach half-maximal inhibition in experiment [1] (IC50). In addition, the “t½ Ratio of pH 7.4 to pH 6.0” value in experiment [2] was found to be 1. In experiment [3], the koff is 0.00999 s⁻¹, the “t½ at pH 6.0” value turned out to be 1.2 min and the “t½ at pH 7.4” value came out at 1.2 min.

B11: mAb14285 (antibody, V domains shown)
VH: QVQLVQSGAEVKKPGASVKVSCKASGYTFTGYFIHWVRQAPGQGLEWMGWISPISGGTNYAQKFQGRVTVTRDTSITTAYMELSRLTSDDTAVYHCAREGGTWKGDFDYWGQGTLVTVSS
VL: QSALTQPASVSGSPGQSITISCTGTSSDVESYNLVSWYQQHPGKAPKLMIYEGSKRPSGVSNRFSGSKSGNTASLTISGLQAEDEADYYCSSYAGSSTWVFGGGTKLTVLG
B11 had a half-maximal inhibitory concentration (IC50) in experiment [1] of 1700 pM. For the same molecule, in experiment [2], the “t½ Ratio of pH 7.4 to pH 6.0” value stood at 0.5. Besides, in experiment [3], the off-rate constant (koff) turned out to be 0.0144 s⁻¹, the “t½ at pH 6.0” value worked out at 0.8 min and the “t½ at pH 7.4” value was found to be 0.4 min.

B12: mAb15160 (antibody, V domains shown)
VH: EVQLVESGGGLVQPGGSLRLSCSASGFTFSRYAMYWVRQAPGKGLEYVSAISSDGGSTYDADSVKGRFTISRANSKNTLYLQMSSLRAEDTAVYYCVKGLRELLYYYYGMDVWGQGTTVTVSS
VL: DIQMTQSPSSLSASVGDRVTITCRAGQSISSFLNWYQQKPGKAPKLLIYAASSLQSGVPSRFSGSGSGTDFTLTISSLQPEDFATYYCQQSYITPFTFGPGTKVDIKR
B12 yielded an IC50 in experiment [1] of 204 pM. Further, in experiment [2], the “t½ Ratio of pH 7.4 to pH 6.0” value amounted to 1.3. Also, in experiment [3], the koff was 0.00283 s⁻¹, the “t½ at pH 6.0” value amounted to 4.1 min and the “t½ at pH 7.4” value is 5.3 min.

B13: mAb14289 (antibody, V domains shown)
VH: QVQLVQSGPEVKKPGASVKVSCKASGYTFTSYAISWVRQAPGQGLEWMGWISAYNGNTNYAQKLQGRVTMTTDTFTSTAYMELRSLRSDDTAVYYCAVPADHITFDYWGQGTLVTVSS
VL: EIVLTQSPGTLSLSPGERATLSCRASQSVSSYLAWYQQKPGQAPRLLIHGASSRATGIPDRFSGSGSGTDFTLTISRLEPEDFAVYYCQQYGSSFLTFGGGTKVEIKR
In turn, B13 had an IC50 in experiment [1] of 378 pM. For the same molecule, in experiment [2], the “t½ Ratio of pH 7.4 to pH 6.0” value stood at 1.5. In experiment [3], the koff worked out at 0.00272 s⁻¹, the “t½ at pH 6.0” value was found to be 4.2 min and the “t½ at pH 7.4” value came to 6.2 min.

B14: mAb14284 (antibody, V domains shown)
VH: QITLKESGPTLVKPTQTLTLTCTFSGFSFSTSGVGVGWIRQPPGKTLEWLALIYWDDDKRYSPSLKSRLTITKDTSKNQVVLTMTNMDPVDTATYFCAHHGIPTIFGYWGQGALVTVSS
VL: QSALTQPASVSGSPGQSITISCTGTSSDLGVFNYVSWYQQHPGKAPKLMIYEVTNRPSGVSNRFSGSKSGNTASLTISGLQAEDEADYYCSSYTTSSTVFGGGTKLTVLG
Molecule B14 gave an IC50 in experiment [1] of 367 pM. For the same molecule, the “t½ Ratio of pH 7.4 to pH 6.0” value in experiment [2] is 0.9. Further, in experiment [3], the koff is 0.000574 s⁻¹, the “t½ at pH 6.0” value was determined as 20.1 min and the “t½ at pH 7.4” value stood at 18.5 min.

B15: mAb14312 (antibody, V domains shown)
VH: EVQLVESGGGLVQPGGSLRLSCAASGFTVSRSYMTWVRQAPGKGLEWVSVIFTGGRTDHADSVKGRFTISRHNSKNTLYLQMNSLRTEDTAVYYCARVAIVGATGAFDIWGQGTMVTVSS
VL: QSVLTQPPSVSGAPGQRVTISCTGSSSNIGAGDDVHWYQQLPGTAPKLLIYGNSNRPSGVPDRFSGSKSGTSASLAITGLQAEDEADYYCQSYDSSLSGSVVFGGGTKLTVLG
B15 registered a half-maximal inhibitory concentration (IC50) in experiment [1] of 134 pM. Further, in experiment [2], the “t½ Ratio of pH 7.4 to pH 6.0” value is 2.1. Moreover, in experiment [3], the koff was 0.00177 s⁻¹, the “t½ at pH 6.0” value amounted to 6.5 min and the “t½ at pH 7.4” value was found to be 13.5 min.

B16: mAb14282 (antibody, V domains shown)
VH: QVQLVQSGAEVKKPGASVKVSCKASGYIFTDHYMHWVRQAPGQGLEWMGWINPNSGATNYAQNFQGRVTMTRDTSIITVYMELSRLRSDDTAVYYCARDSSPYMIRYTMDVWGQGTTITVSS
VL: QSALTQPASVSGSPGQSITISCTGTSSDVGSYNLVSWYQQHPGKAPKLMIYELTKRPSGVSNRFSGSKSGNTASLTISGLQAEDEADYYCSSYRGSVTDVVFGGGTKLTVLG
Molecule B16 displayed an IC50 in experiment [1] of 502 pM. Besides, in experiment [2], the “t½ Ratio of pH 7.4 to pH 6.0” value is 0.8. In experiment [3], the koff is 0.00985 s⁻¹, the “t½ at pH 6.0” value came out at 1.2 min and the “t½ at pH 7.4” value worked out at 0.9 min.
